One may read the Kd as the equilibrium constant for the complex coming apart. Lower therefore signals higher affinity.

One test addresses T1, collagen type I (UniProt P02454 152-1207; P02466 86-1125).
T1 construct: collagen type I, alpha 1 chain; collagen type I, alpha 2 chain; also called collagen I; source: bought: Corning
The experiment in a line: ELISA; 96-well plate coated with 100 μg/ml collagen type I or 2% BSA at 4°C overnight, blocked with 2% BSA in PBS-T; SIRPαFc or CBD–SIRPαFc in five concentrations, 37°C, 2 h; detected with HRP anti-human IgG1 Fc antibody; KD by non-linear regression (one-site specific binding). As to conditions: both partners purified. A general note: In an ELISA, binding on a coated surface is turned into a signal by an enzyme label.

A further test has as its target T2, human CD47 (human, UniProt Q08722 19-323).
T2 construct: CD47, human, in solution as the analyte of Biacore
The experiment in a line: SPR; Biacore T200; SIRPαFc or CBD–SIRPαFc caught on a CM5 chip activated by EDC-NHS; human CD47 in six concentrations flowed over. As to conditions: both partners purified. (In SPR one partner is held on a chip, and binding of the other changes the refractive index at the surface.)

T2 sequence (Q08722 19-323): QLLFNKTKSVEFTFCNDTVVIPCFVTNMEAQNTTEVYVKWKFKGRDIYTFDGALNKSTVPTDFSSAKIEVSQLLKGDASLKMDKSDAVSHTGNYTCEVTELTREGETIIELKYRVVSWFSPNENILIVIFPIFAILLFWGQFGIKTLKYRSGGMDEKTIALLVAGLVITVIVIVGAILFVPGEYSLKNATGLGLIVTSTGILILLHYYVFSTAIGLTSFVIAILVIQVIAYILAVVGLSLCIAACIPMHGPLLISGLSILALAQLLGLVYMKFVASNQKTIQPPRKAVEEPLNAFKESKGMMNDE
T1 sequence (P02454 152-1207, chain 1 of 2): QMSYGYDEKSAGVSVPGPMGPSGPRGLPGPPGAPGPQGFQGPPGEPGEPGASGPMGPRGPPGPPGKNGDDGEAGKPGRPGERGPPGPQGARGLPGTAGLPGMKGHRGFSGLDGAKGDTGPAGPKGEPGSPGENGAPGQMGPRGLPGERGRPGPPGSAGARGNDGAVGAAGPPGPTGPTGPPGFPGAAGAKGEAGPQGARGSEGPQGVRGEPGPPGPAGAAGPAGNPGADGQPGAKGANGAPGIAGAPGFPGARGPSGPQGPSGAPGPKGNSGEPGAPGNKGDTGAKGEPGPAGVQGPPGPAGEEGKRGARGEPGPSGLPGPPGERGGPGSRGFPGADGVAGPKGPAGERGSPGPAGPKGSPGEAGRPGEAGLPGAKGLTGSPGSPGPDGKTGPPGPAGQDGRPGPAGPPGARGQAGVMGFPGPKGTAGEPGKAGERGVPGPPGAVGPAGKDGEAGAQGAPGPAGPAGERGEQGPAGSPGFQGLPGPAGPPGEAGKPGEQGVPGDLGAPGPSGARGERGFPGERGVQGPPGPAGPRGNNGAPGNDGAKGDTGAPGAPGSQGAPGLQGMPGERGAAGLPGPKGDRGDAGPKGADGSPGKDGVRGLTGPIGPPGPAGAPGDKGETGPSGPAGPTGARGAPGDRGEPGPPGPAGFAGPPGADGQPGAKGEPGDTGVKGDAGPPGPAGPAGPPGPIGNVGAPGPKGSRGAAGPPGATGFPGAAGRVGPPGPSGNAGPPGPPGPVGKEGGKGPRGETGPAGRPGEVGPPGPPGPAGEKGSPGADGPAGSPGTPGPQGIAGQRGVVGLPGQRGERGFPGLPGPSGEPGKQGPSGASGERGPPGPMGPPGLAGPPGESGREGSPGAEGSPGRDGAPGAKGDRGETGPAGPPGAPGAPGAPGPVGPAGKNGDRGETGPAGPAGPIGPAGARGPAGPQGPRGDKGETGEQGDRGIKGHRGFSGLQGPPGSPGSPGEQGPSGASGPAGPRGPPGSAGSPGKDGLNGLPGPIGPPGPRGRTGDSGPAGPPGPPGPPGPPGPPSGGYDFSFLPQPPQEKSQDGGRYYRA
T1 sequence (P02466 86-1125, chain 2 of 2): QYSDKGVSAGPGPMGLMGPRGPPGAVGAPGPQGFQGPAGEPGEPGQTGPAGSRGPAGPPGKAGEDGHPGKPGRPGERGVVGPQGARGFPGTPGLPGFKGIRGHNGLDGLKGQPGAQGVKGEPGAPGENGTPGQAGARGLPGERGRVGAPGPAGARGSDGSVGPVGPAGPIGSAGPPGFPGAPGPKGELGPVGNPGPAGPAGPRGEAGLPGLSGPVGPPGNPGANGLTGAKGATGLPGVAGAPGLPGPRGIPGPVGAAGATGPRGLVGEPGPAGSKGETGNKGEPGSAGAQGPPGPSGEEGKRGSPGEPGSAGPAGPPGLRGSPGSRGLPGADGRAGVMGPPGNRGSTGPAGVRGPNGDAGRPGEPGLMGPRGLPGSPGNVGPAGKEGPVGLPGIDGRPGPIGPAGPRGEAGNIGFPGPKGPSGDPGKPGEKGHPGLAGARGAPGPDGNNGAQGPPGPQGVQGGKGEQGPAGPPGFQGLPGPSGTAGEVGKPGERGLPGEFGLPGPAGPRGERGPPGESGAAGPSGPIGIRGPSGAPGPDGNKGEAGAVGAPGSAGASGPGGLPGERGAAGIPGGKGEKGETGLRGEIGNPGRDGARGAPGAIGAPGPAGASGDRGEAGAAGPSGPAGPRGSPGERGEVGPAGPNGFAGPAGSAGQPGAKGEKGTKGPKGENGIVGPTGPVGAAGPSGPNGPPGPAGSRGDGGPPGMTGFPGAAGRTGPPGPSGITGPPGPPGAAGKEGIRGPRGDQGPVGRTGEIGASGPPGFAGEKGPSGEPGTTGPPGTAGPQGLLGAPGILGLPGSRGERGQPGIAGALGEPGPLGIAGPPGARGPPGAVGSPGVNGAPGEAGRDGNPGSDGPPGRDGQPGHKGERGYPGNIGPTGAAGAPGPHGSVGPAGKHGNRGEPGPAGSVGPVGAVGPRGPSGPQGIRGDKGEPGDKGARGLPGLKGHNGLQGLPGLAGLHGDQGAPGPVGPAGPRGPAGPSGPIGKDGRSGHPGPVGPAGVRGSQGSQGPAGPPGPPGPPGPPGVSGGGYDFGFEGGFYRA

B1: TKKTLRT–SIRPαFc conjugate (Fc fusion)
chain 1: EEELQVIQPDKSVLVAAGETATLRCTATSLIPVGPIQWFRGAGPGRELIYNQKEGHFPRVTTVSDLTKRNNMDFSIRIGNITPADAGTYYCVKFRKGSPDDVEFKSG
chain 2: TKKTLRTC
modifications: free amino groups joined through Sulfo-SMCC to the cysteine of the peptide TKKTLRTC; one or two peptides on one SIRPαFc (MALDI-TOF-MS); sites not told | sulfhydryl of the C-terminal cysteine joined to the maleimide group of Sulfo-SMCC
With B1, the Kd was 180 nM in the test with collagen type I and 1.44 nM in the test with human CD47.

B2: human SIRPαFc fusion protein (Fc fusion)
chain: B1 chain 1
As to B2, the dissociation constant Kd with human CD47 came to 3.3 nM.

The values above are taken from PMC9002095, “A SIRPαFc Fusion Protein Conjugated With the Collagen-Binding Domain for Targeted Immunotherapy of Non-Small Cell Lung Cancer” (Frontiers in Immunology, 2022).
